From PMC2764551

Biological target: fluorescein-labeled UBE2D2 (WT) (human), P62837
Experiment: fluorescence polarisation
Conditions: remark: other sources report otherwise

Sequence of fluorescein-labeled UBE2D2 (WT) (human), P62837 (P62837 whole entry): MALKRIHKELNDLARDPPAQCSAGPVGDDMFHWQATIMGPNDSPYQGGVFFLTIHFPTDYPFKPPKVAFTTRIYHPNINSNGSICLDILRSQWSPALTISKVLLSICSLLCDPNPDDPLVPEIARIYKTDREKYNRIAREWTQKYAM

B1: IpaH1.4 C-terminal domain, residues 265-575, A0A0H2USG1 265-575 (domain or fragment)
chain: GPQIFFSMGNSATISAPEHSLADAVTAWFPENKQSDVSQIWHAFEHEEHANTFSAFLDRLSDTVSARNTSGFREQVAAWLEKLSASAELRQQSFAVAADATESCEDRVALTWNNLRKTLLVHQASEGLFDNDTGALLSLGREMFRLEILEDIARDKVRTLHFVDEIEVYLAFQTMLAEKLQLSTAVKEMRFYGVSGVTANDLRTAEAMVRSREENEFTDWFSLWGPWHAVLKRTEADRWAQAEEQKYEMLENEYSQRVADRLKASGLSGDADAEREAGAQVMRETEQQIYRQLTDEVLALRLSENGSNHIA
Kd: 317 µM
